{"source": "paper PMC4138051", "origin": "cited, not measured here", "key": {"[1]": {"target": "MLL 1-160 (Homo sapiens) (UniProt Q03164)"}, "[2]": {"target": "MLL MBM1 6-13 (Homo sapiens) (UniProt Q03164)"}, "[3]": {"target": "MLL MBM2 24-40 (Homo sapiens) (UniProt Q03164)"}, "[4]": {"target": "MLL 1-160 (Homo sapiens) (UniProt Q03164)", "remark": "listed apart in the source"}}, "note": "pKd: −log10 of the molar value. Read-outs that look alike come from different tables or passages of the source.", "data": [{"substance": "menin (from UniProt O00255)", "values": [{"measurement": "pKd", "setting": "[1]", "result": 8.00}, {"measurement": "pKd", "setting": "[2]", "result": 7.25}, {"measurement": "pKd", "setting": "[3]", "result": 6.00}, {"measurement": "pKd", "setting": "[4]", "result": 5.82}]}]}
